Source: patent publication US20240400708A1

Assays:
[1] = molecular target: feline FcRn complex (FcRn-α subunit and β-microglobulin), biotin labeled (feline); assay: SPR, pH 6
[2] = molecular target: feline FcRn complex (FcRn-α subunit and β-microglobulin), biotin labeled (feline); assay: SPR, pH 7.4

B1: feline IgG1a S252Y/S428M/S434F (antibody, part only; not given: Variable domains, not shown: another chain or arm of the molecule)
constant: ASTTAPSVFPLAPSCGTTSGATVALACLVLGYFPEPVTVSWNSGALTSGVHTFPAVLQASGLYSLSSMVTVPSSRWLSDTFTCNVAHPPSNTKVDKTVRKTDHPPGPKPCDCPKCPPPEMLGGPSIFIFPPKPKDTLYISRTPEVTCLVVDLGPDDSDVQITWFVDNTQVYTAKTSPREEQFNSTYRVVSVLPILHQDWLKGKEFKCKVNSKSLPSPIERTISKAKGQPHEPQVYVLPPAQEELSRNKVSVTCLIKSFHPPDIAVEWEITGQPEPENNYRTTPPQLDSDGTYFVYSKLSVDRSHWQRGNTYTCSVMHEALHFHHTQKSLTQSPGK
- Kd [1]: 0.0207 nM
- Kd [2]: 9.13 nM

B2: feline IgG1a L309G (antibody, part only; not given: Variable domains, not shown: another chain or arm of the molecule)
constant: ASTTAPSVFPLAPSCGTTSGATVALACLVLGYFPEPVTVSWNSGALTSGVHTFPAVLQASGLYSLSSMVTVPSSRWLSDTFTCNVAHPPSNTKVDKTVRKTDHPPGPKPCDCPKCPPPEMLGGPSIFIFPPKPKDTLSISRTPEVTCLVVDLGPDDSDVQITWFVDNTQVYTAKTSPREEQFNSTYRVVSVLPIGHQDWLKGKEFKCKVNSKSLPSPIERTISKAKGQPHEPQVYVLPPAQEELSRNKVSVTCLIKSFHPPDIAVEWEITGQPEPENNYRTTPPQLDSDGTYFVYSKLSVDRSHWQRGNTYTCSVSHEALHSHHTQKSLTQSPGK
- Kd [1]: 9.12 nM
- Kd [2]: 54.5 nM

B3: feline IgG1a S252Y/S428M/S434L (antibody, part only; not given: Variable domains, not shown: another chain or arm of the molecule)
constant: ASTTAPSVFPLAPSCGTTSGATVALACLVLGYFPEPVTVSWNSGALTSGVHTFPAVLQASGLYSLSSMVTVPSSRWLSDTFTCNVAHPPSNTKVDKTVRKTDHPPGPKPCDCPKCPPPEMLGGPSIFIFPPKPKDTLYISRTPEVTCLVVDLGPDDSDVQITWFVDNTQVYTAKTSPREEQFNSTYRVVSVLPILHQDWLKGKEFKCKVNSKSLPSPIERTISKAKGQPHEPQVYVLPPAQEELSRNKVSVTCLIKSFHPPDIAVEWEITGQPEPENNYRTTPPQLDSDGTYFVYSKLSVDRSHWQRGNTYTCSVMHEALHLHHTQKSLTQSPGK
- Kd [1]: 6.91 nM
- Kd [2]: 28.9 nM

B4: feline IgG1a Q311R (antibody, part only; not given: Variable domains, not shown: another chain or arm of the molecule)
constant: ASTTAPSVFPLAPSCGTTSGATVALACLVLGYFPEPVTVSWNSGALTSGVHTFPAVLQASGLYSLSSMVTVPSSRWLSDTFTCNVAHPPSNTKVDKTVRKTDHPPGPKPCDCPKCPPPEMLGGPSIFIFPPKPKDTLSISRTPEVTCLVVDLGPDDSDVQITWFVDNTQVYTAKTSPREEQFNSTYRVVSVLPILHRDWLKGKEFKCKVNSKSLPSPIERTISKAKGQPHEPQVYVLPPAQEELSRNKVSVTCLIKSFHPPDIAVEWEITGQPEPENNYRTTPPQLDSDGTYFVYSKLSVDRSHWQRGNTYTCSVSHEALHSHHTQKSLTQSPGK
- Kd [1]: 4.56 nM
- Kd [2]: 67.2 nM

B5: feline IgG1a S252Y/S428M/S434P (antibody, part only; not given: Variable domains, not shown: another chain or arm of the molecule)
constant: ASTTAPSVFPLAPSCGTTSGATVALACLVLGYFPEPVTVSWNSGALTSGVHTFPAVLQASGLYSLSSMVTVPSSRWLSDTFTCNVAHPPSNTKVDKTVRKTDHPPGPKPCDCPKCPPPEMLGGPSIFIFPPKPKDTLYISRTPEVTCLVVDLGPDDSDVQITWFVDNTQVYTAKTSPREEQFNSTYRVVSVLPILHQDWLKGKEFKCKVNSKSLPSPIERTISKAKGQPHEPQVYVLPPAQEELSRNKVSVTCLIKSFHPPDIAVEWEITGQPEPENNYRTTPPQLDSDGTYFVYSKLSVDRSHWQRGNTYTCSVMHEALHPHHTQKSLTQSPGK
- Kd [1]: 4.86 nM
- Kd [2]: 44.4 nM

B6: feline IgG1a Q311F (antibody, part only; not given: Variable domains, not shown: another chain or arm of the molecule)
constant: ASTTAPSVFPLAPSCGTTSGATVALACLVLGYFPEPVTVSWNSGALTSGVHTFPAVLQASGLYSLSSMVTVPSSRWLSDTFTCNVAHPPSNTKVDKTVRKTDHPPGPKPCDCPKCPPPEMLGGPSIFIFPPKPKDTLSISRTPEVTCLVVDLGPDDSDVQITWFVDNTQVYTAKTSPREEQFNSTYRVVSVLPILHFDWLKGKEFKCKVNSKSLPSPIERTISKAKGQPHEPQVYVLPPAQEELSRNKVSVTCLIKSFHPPDIAVEWEITGQPEPENNYRTTPPQLDSDGTYFVYSKLSVDRSHWQRGNTYTCSVSHEALHSHHTQKSLTQSPGK
- Kd [1]: 8.85 nM
- Kd [2]: 1370 nM

B7: feline IgG1a Q311H (antibody, part only; not given: Variable domains, not shown: another chain or arm of the molecule)
constant: ASTTAPSVFPLAPSCGTTSGATVALACLVLGYFPEPVTVSWNSGALTSGVHTFPAVLQASGLYSLSSMVTVPSSRWLSDTFTCNVAHPPSNTKVDKTVRKTDHPPGPKPCDCPKCPPPEMLGGPSIFIFPPKPKDTLSISRTPEVTCLVVDLGPDDSDVQITWFVDNTQVYTAKTSPREEQFNSTYRVVSVLPILHHDWLKGKEFKCKVNSKSLPSPIERTISKAKGQPHEPQVYVLPPAQEELSRNKVSVTCLIKSFHPPDIAVEWEITGQPEPENNYRTTPPQLDSDGTYFVYSKLSVDRSHWQRGNTYTCSVSHEALHSHHTQKSLTQSPGK
- Kd [1]: 5.84 nM
- Kd [2]: 93.7 nM

B8: feline IgG1a Q311I (antibody, part only; not given: Variable domains, not shown: another chain or arm of the molecule)
constant: ASTTAPSVFPLAPSCGTTSGATVALACLVLGYFPEPVTVSWNSGALTSGVHTFPAVLQASGLYSLSSMVTVPSSRWLSDTFTCNVAHPPSNTKVDKTVRKTDHPPGPKPCDCPKCPPPEMLGGPSIFIFPPKPKDTLSISRTPEVTCLVVDLGPDDSDVQITWFVDNTQVYTAKTSPREEQFNSTYRVVSVLPILHIDWLKGKEFKCKVNSKSLPSPIERTISKAKGQPHEPQVYVLPPAQEELSRNKVSVTCLIKSFHPPDIAVEWEITGQPEPENNYRTTPPQLDSDGTYFVYSKLSVDRSHWQRGNTYTCSVSHEALHSHHTQKSLTQSPGK
- Kd [1]: 7 nM
- Kd [2]: 77.1 nM

B9: feline IgG1a D399V (antibody, part only; not given: Variable domains, not shown: another chain or arm of the molecule)
constant: ASTTAPSVFPLAPSCGTTSGATVALACLVLGYFPEPVTVSWNSGALTSGVHTFPAVLQASGLYSLSSMVTVPSSRWLSDTFTCNVAHPPSNTKVDKTVRKTDHPPGPKPCDCPKCPPPEMLGGPSIFIFPPKPKDTLSISRTPEVTCLVVDLGPDDSDVQITWFVDNTQVYTAKTSPREEQFNSTYRVVSVLPILHQDWLKGKEFKCKVNSKSLPSPIERTISKAKGQPHEPQVYVLPPAQEELSRNKVSVTCLIKSFHPPDIAVEWEITGQPEPENNYRTTPPQLVSDGTYFVYSKLSVDRSHWQRGNTYTCSVSHEALHSHHTQKSLTQSPGK
- Kd [1]: 8.29 nM
- Kd [2]: 2880 nM

B10: feline IgG1a Q311M (antibody, part only; not given: Variable domains, not shown: another chain or arm of the molecule)
constant: ASTTAPSVFPLAPSCGTTSGATVALACLVLGYFPEPVTVSWNSGALTSGVHTFPAVLQASGLYSLSSMVTVPSSRWLSDTFTCNVAHPPSNTKVDKTVRKTDHPPGPKPCDCPKCPPPEMLGGPSIFIFPPKPKDTLSISRTPEVTCLVVDLGPDDSDVQITWFVDNTQVYTAKTSPREEQFNSTYRVVSVLPILHMDWLKGKEFKCKVNSKSLPSPIERTISKAKGQPHEPQVYVLPPAQEELSRNKVSVTCLIKSFHPPDIAVEWEITGQPEPENNYRTTPPQLDSDGTYFVYSKLSVDRSHWQRGNTYTCSVSHEALHSHHTQKSLTQSPGK
- Kd [1]: 4.97 nM
- Kd [2]: 5100 nM

B11: feline IgG1a G402R (antibody, part only; not given: Variable domains, not shown: another chain or arm of the molecule)
constant: ASTTAPSVFPLAPSCGTTSGATVALACLVLGYFPEPVTVSWNSGALTSGVHTFPAVLQASGLYSLSSMVTVPSSRWLSDTFTCNVAHPPSNTKVDKTVRKTDHPPGPKPCDCPKCPPPEMLGGPSIFIFPPKPKDTLSISRTPEVTCLVVDLGPDDSDVQITWFVDNTQVYTAKTSPREEQFNSTYRVVSVLPILHQDWLKGKEFKCKVNSKSLPSPIERTISKAKGQPHEPQVYVLPPAQEELSRNKVSVTCLIKSFHPPDIAVEWEITGQPEPENNYRTTPPQLDSDRTYFVYSKLSVDRSHWQRGNTYTCSVSHEALHSHHTQKSLTQSPGK
- Kd [1]: 6.1 nM
- Kd [2]: 1200 nM

B12: feline IgG1a Q311K (antibody, part only; not given: Variable domains, not shown: another chain or arm of the molecule)
constant: ASTTAPSVFPLAPSCGTTSGATVALACLVLGYFPEPVTVSWNSGALTSGVHTFPAVLQASGLYSLSSMVTVPSSRWLSDTFTCNVAHPPSNTKVDKTVRKTDHPPGPKPCDCPKCPPPEMLGGPSIFIFPPKPKDTLSISRTPEVTCLVVDLGPDDSDVQITWFVDNTQVYTAKTSPREEQFNSTYRVVSVLPILHKDWLKGKEFKCKVNSKSLPSPIERTISKAKGQPHEPQVYVLPPAQEELSRNKVSVTCLIKSFHPPDIAVEWEITGQPEPENNYRTTPPQLDSDGTYFVYSKLSVDRSHWQRGNTYTCSVSHEALHSHHTQKSLTQSPGK
- Kd [1]: 4.85 nM
- Kd [2]: 1750 nM

B13: feline IgG1a Y404Q (antibody, part only; not given: Variable domains, not shown: another chain or arm of the molecule)
constant: ASTTAPSVFPLAPSCGTTSGATVALACLVLGYFPEPVTVSWNSGALTSGVHTFPAVLQASGLYSLSSMVTVPSSRWLSDTFTCNVAHPPSNTKVDKTVRKTDHPPGPKPCDCPKCPPPEMLGGPSIFIFPPKPKDTLSISRTPEVTCLVVDLGPDDSDVQITWFVDNTQVYTAKTSPREEQFNSTYRVVSVLPILHQDWLKGKEFKCKVNSKSLPSPIERTISKAKGQPHEPQVYVLPPAQEELSRNKVSVTCLIKSFHPPDIAVEWEITGQPEPENNYRTTPPQLDSDGTQFVYSKLSVDRSHWQRGNTYTCSVSHEALHSHHTQKSLTQSPGK
- Kd [1]: 9.96 nM
- Kd [2]: 9940 nM

B14: feline IgG1a D399M (antibody, part only; not given: Variable domains, not shown: another chain or arm of the molecule)
constant: ASTTAPSVFPLAPSCGTTSGATVALACLVLGYFPEPVTVSWNSGALTSGVHTFPAVLQASGLYSLSSMVTVPSSRWLSDTFTCNVAHPPSNTKVDKTVRKTDHPPGPKPCDCPKCPPPEMLGGPSIFIFPPKPKDTLSISRTPEVTCLVVDLGPDDSDVQITWFVDNTQVYTAKTSPREEQFNSTYRVVSVLPILHQDWLKGKEFKCKVNSKSLPSPIERTISKAKGQPHEPQVYVLPPAQEELSRNKVSVTCLIKSFHPPDIAVEWEITGQPEPENNYRTTPPQLMSDGTYFVYSKLSVDRSHWQRGNTYTCSVSHEALHSHHTQKSLTQSPGK
- Kd [1]: 5.33 nM
- Kd [2]: 46.8 nM

B15: feline IgG1a L309I (antibody, part only; not given: variable domains, not shown: another chain or arm of the molecule)
constant: ASTTAPSVFPLAPSCGTTSGATVALACLVLGYFPEPVTVSWNSGALTSGVHTFPAVLQASGLYSLSSMVTVPSSRWLSDTFTCNVAHPPSNTKVDKTVRKTDHPPGPKPCDCPKCPPPEMLGGPSIFIFPPKPKDTLSISRTPEVTCLVVDLGPDDSDVQITWFVDNTQVYTAKTSPREEQFNSTYRVVSVLPIIHQDWLKGKEFKCKVNSKSLPSPIERTISKAKGQPHEPQVYVLPPAQEELSRNKVSVTCLIKSFHPPDIAVEWEITGQPEPENNYRTTPPQLDSDGTYFVYSKLSVDRSHWQRGNTYTCSVSHEALHSHHTQKSLTQSPGK
- Kd [1]: 6.81 nM
- Kd [2]: 4530 nM
